Test: label from the status in PepcDB records

| Sequence | protein production |
| --- | --- |
| MSKEMRSRLFSILKVVFAVALFSIVVFTLYKELSHINIKETIQSFGKINRVWLVALFVIGGASIIVLSMYDVILAKSLNLKISLLKTIRVGYIVNALNAVVGFGGFIGASVRFLFYKNATDDKRALLHTISIVLISMLTGLSLLSILVVIHVFDVSHLFTPYPWIKWLMYVVALFLPVFVIFTILRPVQENQKLLGVYCTIVSSIEWLVAALVLYMALTMVGVHVPISIFMGIFIIAALSGLISFIPGGFGTFDLVVLLGLKHLNIDEESIVLGLLLYRFAYYLFPVLVALILSTFEFRGTAKRYWEDARILVPVRDMTSLLSSYQKDIIARAPSFSIAILLMFTSLLFFLNNLTIIYDGLYDPNHYIYYIIVSVHTCACLLLLLNVVGVYRLSKRAILFSIISIILIFIVTAYTYASFILLSWLVVMLILLFIFYRRARVIKRPFRYLKLCLSFIMGALVLYINHIVIASTFYTLDIYHIEIDTSILRYYFWFTILLVAVIVGLIVWWFEYRYRISNTREDTKICASIVKQYGGNYLSHLMYSGDKKFFINENEDAFIMYRYQRNAYIVLGDPIGNPQSFYSLLESFYQEAEYLGYDIIFYQVTDRNMSLYHSFGNQFFKLGEEAVIDLNEFKISGKKKRGLRATLNKLDDLKYTFEVIEPPFTQALITDLKTISDEWLADKKEMHFSVGSFNESYLSKAPIAIIKDSDGLIIAFCTLMPTYYKGTISVDLIRWKPDCTLPLMDGLYLNMLLWSQKQNYQHFNMGMATLSNVGQLPYSFYGERIAGRVFEHFNGLYRFQGLRKYKEKFNPNWEPRFLVYRKRHSLWLSMIKVMRVIRKHK | failed |
| MAEASPQPGRYFCHCCSVEIVPRLPDYICPRCESGFIEELPEETRNTENGSAPSTAPTDQNRQPFENVDQHLFTLPQGYSQFAFGIFDDSFEIPTFPPGAQADDGRDPESRREREHQSRHRYGARQPRARLTARRATGRHEGVPTLEGIIQQLVNGIISPAAVPSLGLGPWGVLHSNPMDYAWGANGLDTIITQLLNQFENTGPPPADKEKIQALPTVPVTEEHVGSGLECPVCKEDYALGESVRQLPCNHLFHDSCIVPWLEQHDSCPVCRKSLTGQNTATNPPGLTGVGFSSSSSSSSSSSPSNENATSNS | not failed |
| EAQRELTEMEARTRLTTEMMPAHIAHVGRDLRYTYSNRRLSQVIPGRPSDILGLTGREALGEGLFARIRPCLLRALEGEASVLEFSDEDSGSRIRAAFTPDRTGDGPINGVYILSMDVT | failed |
| MIKETVFKSFDTPSALEQQLASKIASQLQEAVDARGKASLVVSGGSTPLKLFQLLSMKSIDWSDVYITLADERWVEADADASNERLVREHLLQNRASNAKFRGLKNMFSTAEAGADMAAESLSNFPRPFDVVVLGMGNDGHTCSWFPCSAELENALTTQALCVATNPTTAPHGRITLSKSAILNSRQIYLHLVGEQKLSVYRQALESDDVHAMPIRAVLAQRKTPVDVFWSA | not failed |
| MEMDTMFLAILIGAGLIGISVVTSLISFRVGAPLLLVFLGVGLLAGQDGIGGIVFNDSGTAYFIGSLALAVILFDSGFSTRLQTFRLAAAPSIVLATLGVALTTALVAIPSHSLLGLSWEESALMGAVVGSTDAAAVFFLLRVGGILIRDRVRATLEVESSTNDPMAIFLTITLVELASAGGFSGEALSWGLGLAFVRQMGLGLLCGWIGGHLLVVGINRLRLEPALYPILGLALALFLFAAVSMVDGSGFLAIYVAGMVMGNRKMRGGPALRRFQEALTWLAQMTMFLTLGLFASPSTFIDVALPSVLIGLFLVFVARPVAVWLCLLPFGYDRNETAFVAWVGLRGAVSILLAILPIAAGLEHAQEMFNAAFIVVVTSLLLQGWTIRPMARWLGLVVPPRLGPVDKVELQLPYGGDHELLVYRIAKGSPVAEGERIPRWARPSLVVRDGRSMKVLDSGRPQPGDHVYIFSAPRHGALLDRLFARPTALSPADEAYFGDFSLDASRTMGELATLYGIKVPEGAQDTAVGEWLTQRLGGAPARGDRVVLPPIEIIVREMDNSTDVIRTIGLSLDPGEGRPRRVPMFHNARDIIGSVRDWRAARRRFAAKNS | failed |
| MTKGESTMQRIAVLSDAETATGYRLAGATVIEASPEDALRTLEQAITDGGYGLIAVDTGLIPDPATATARIMRGRDLPILLPIPSLRDAFSSDTVDAKAYMGKLVRDTIGFDIKLLEHHHHHH | not failed |
| MTTPVDAPKWPRQIPYIIASEACERFSFYGMRNILTPFLMTALLLSIPEELRGAVAKDVFHSFVIGVYFFPLLGGWIADRFFGKYNTILWLSLIYCVGHAFLAIFEHSVQGFYTGLFLIALGSGGIKPLVSSFMGDQFDQSNKSLAQKAFDMFYFTINFGSFFASLSMPLLLKNFGAAVAFGIPGVLMFVATVFFWLGRKRYIHMPPEPKDPHGFLPVIRSALLTKVEGKGNIGLVLALIGGVSAAYALVNIPTLGIVAGLCCAMVLVMGFVGAGASLQLERARKSHPDAAVDGVRSVLRILVLFALVTPFWSLFDQKASTWILQANDMVKPQWFEPAMMQALNPLLVMLLIPFNNFVLYPAIERMGVKLTALRKMGAGIAITGLSWIVVGTIQLMMDGGSALSIFWQILPYALLTFGEVLVSATGLEFAYSQAPKAMKGTIMSFWTLSVTVGNLWVLLANVSVKSPTVTEQIVQTGMSVTAFQMFFFAGFAILAAIVFALYARSYQMQDHYRQAT | failed |
| QTDPKKPTTDEGTASSEVNATEEMSTLVNYIEPVKFKSFEAARKRNKCFEMSSFVETKAMEQLTKSPMEFVEYNKQQLSRIYPKGTRVDSSNYMPQLFWNVGCQLVALNFQTLDVAMQLNAGVFEYNGRSGYLLKPEFMRRPDKSFDPFTEVIVDGIVANALRVKVISGQFLSDRKVGIYVEVDMFGLPVDTRRKYRTRTSQGNSFNPVWDEEPFDFPKVVLPTLASLRIAAFEEGGKFVGHRILPVSAIRSGYHYVCLRNEANQPLCLPALLIYTEASDYIPDDHQDYAEALINPIKHVSLMDQRARQLAALIGESEAQAGQETCQDTQSQQLGSQPSSNPTPSPLD | failed |
| MKKQLIKSSTFRTLEVIIITVISLVLTPYLIHHLGDAHYGLWILILSALGWFNFIDLGFAYAVQRNIVLALENKDNHRINIVFSVAVALFSVLGFIAAFCVLVLAFFPELLGINEKEQSIATIAFSILAIKVFLDFIMNCFHGFFTAYLRMDIDANLGTLNMVVKSILVFYLIIDMNIYGAVFATIAADILTHSLKMHFARKLHPEFKFVLHLVKFSEVRQLFAFSKHLILMGMAKSVNRRVDPIIISHLLGLKFVAIYNVINSLMNQVESLVGAIVGVFQPVLTKMVARNTGLDGTFKLIISINFFTVILLYMPLAILAEDFITLWIGLDYAQAGQLAPILGFAYICRTVSRPISSLLLAKAQHQLLSVVNLLGALLNIGLSLVLGSQWGLLGIAIATACSFFVSDVILHLVLLNKYTELPVLKPILEFIKLVVLYILLVVLGISMMQLFEPLNWGQLIIAAIACVCIALLIAWPMLLDKEVKQKLLGMLIKTGKAHD | failed |
| MDSQSENGSGAGNRTSIERRGDRELVVTRTFDAPRAMVYRAWSEPELFRRWWMPKSATGVTLVSCDMDVRTGGKYRLEFSTGGPQTMAFYGKYLDVVPNERIVWTNDEGEADAGEKGAITTVTFEDHGSQTLLRFHEVYPTAEALEEALQGSAAALPEQFDQLGEVLSGSGGKQ | failed |
| MSTDTSGVGVREIDAGALPTRYARGWHCLGVAKDYLEGKPHGVEAFGTKLVVFADSHGDLKVLDGYCRHMGGDLSEGTVKGDEVACPFHDWRWGGDGRCKLVPYARRTPRMARTRSWTTDVRSGLLFVWHDHEGNPPDPAVRIPEIPEAASDEWTDWRWNRILIEGSNCRDIIDNVTDMAHFFYIHFGLPTYFKNVFEGHIASQYLHNVGRPDVDDLGTSYGEAHLDSEASYFGPSFMINWLHNRYGNYKSESILINCHYPVTQNSFVLQWGVIVEKPKGMSEEMTDKLSRVFTEGVSKGFLQDVEIWKHKTRIDNPLLVEEDGAVYQLRRWYEQFYVDVADIKPEMVERFEIEVDTKRANEFWNAEVEKNLKSREVSDDVPAEQH | not failed |
| MTVRVCKMDGEVMPVVVVQNATVLDLKKAIQRYVQLKQEREGGVQHISWSYVWRTYHLTSAGEKLTEDRKKLRDYGIRNRDEVSFIKKLGQK | not failed |
| MENDKHNNPKTIFIPDDIAEGIFHHLPIKSLARFKVLSKKWTSMIESTYFSHKRLIRTGLPTPNMKFLHISQHFTANFVEEYSNSITFLLETFSRDDQNNRKTFDESQNKTIQVLGSCDGLVLLRIHDDFRSIYLINPTTKEHMKLSPEFMQWPFTLSYLTPAMANKPWRQLSQSVLDYDISVKRMPSLAGFGKDIVKKSYKVVLIYTRYEIHDHEFKAKVLSLDNGEQRDVGFYDIHHCIFCDEQTSVYANGSLFWLTLKKLSQTSYQLLAIDLHTEEFRWILLPECDTKYATNIEMWNLNERLCLSDVLESSNLVVWSLHQEYPTEKWEKIYSIKIDVIRTNQLHEKFWMLGLAAAYFSNIRNRQDQVSFFRQRTISYLPTMISPSNLML | failed |
| MKNVGDLMQRLQKMMPAHIKPAFKTGEELLAWQKEQGAIRSAALERENRAMKMQRTFNRSGIRPLHQNCSFENYRVECEGQMNALSKARQYVEEFDGNIASFIFSGKPGTGKNHLAAAICNELLLRGKSVLIITVADIMSAMKDTFRNSGTSEEQLLNDLSNVDLLVIDEIGVQTESKYEKVIINQIVDRRSSSKRPTGMLTNSNMEEMTKLLGERVMDRMRLGNSLWVIFNWDSYRSRVTGKEY | failed |
| MSMPNHPNLTTADAKKILNKFNCLDIAPILKPSEKESVRRALILITKLSDYQILGICADTADEGLLAMKTYSHALGYEVPIDLPVVEGPVYIKLNGKNGLCYLDSYAGHHRGVLVSCQSYYEGGINEMYGHLPLDLFV | not failed |
| MVTPFPEVSEWLCIGQIVGAHGLRGEVKVKPFSDFPERFTVPGCRWLRSPRQPQPYAVTLLRGRFLPRAEQFVVTFAEISDRTAAEALKGAEILVPASDRPPLAANEYHLMDLIGLAVYHQGERVGEVVGLVNAGNDLLEVQLLDPAPKAPQSVYIPFVPAIVPVVDLAARRIEIDPPLGLLPLEHHHHHH | failed |
| LEIKQLLNIYRDLQLGHFCAFYQPQKHIDSGGVVAFEALARRVIGKGLYEMPDRFFPILEKYHLIPTLTEVMVRDILTFLMTEDAVLQDITIGVNIPGKMLTDGSFYRLLLSVAEEKQAQHALHRLSVEITEHDLIADFDAAKHEIYKLKSLGIRCALDDFGTGYSGYEYLCEIPFDVVKIDGRYIQSLGKAESSTVILQSMISSIKSLSMQVIAEWVDSDQQYQILQEMGCDLVQGYLVSPAISPQQVLNYLHNKLSP | failed |
| MYEEWKIVKREAPILGNDQLIENIWKMKREDSPYDIISLHKVNLIGGGNDAVLILPGTWSSGEQLVTISWNGVHYTIPDYRKSIVLYLARNGFNVYTIDYRTHYVPPFLKDRQLSFTANWGWSTWISDIKEVVSFIKRDSGQERIYLAGESFGGIAALNYSSLYWKNDIKGLILLDGGPTKHGIRPKFYTPEVNSIEEMEAKGIYVIPSRGGPNNPIWSYALANPDMPSPDPKYKSISDFLMDSLYVTGSANPYDYPYSKKEDMFPILASFDPYWPYRLSLERDLKFDYEGILVPTIAFVSERFGIQIFDSKILPSNSEIILLKGYGHLDVYTGENSEKDVNSVVLKWLSQQR | not failed |
| MNSGRPETMENLPALYTIFQGEVAMVTDYGAFIKIPGCRKQGLVHRTHMSSCRVDKPSEIVDVGDKVWVKLIGREMKNDRIKVSLSMKVVNQGTGKDLDPNNVIIE | not failed |
| WSYEHLHLTNRIKLLYAPTFRDNELGMAKLHLDIAEMKQALGNEYQLILKLHPSISNDLEKLDDDFVIYVDKETPIETLLPVVDILITDYSSIPFEFALLQKPMIFFTYDLTEYNNARGLSDGFLETIPGPHVFTTTELIEVIQNNTFDLEKVRLFAEKWNKYSDGFSSERFVSFLKEQLEK | failed |
| MRKVTAAVMASTLAFSFLSHAAEVVTSDNWHPGDGATQRSAQNHMFDGISLTEHQRQQMRDLMQQARHEQPPVNVSEMETMHRLVTAEKFDESAVRAQAEKMAQEQVARQVEMARVRNQMYRLLTPEQQAVLNEKHQQRMEQLRDVAQWQKSSSLKLLSSSNSRSQLEHHHHHH | failed |

From a protein production outcome set (Wang et al. 2014)
